Key:
[1] = target: pre-existing anti-scFv903 antibodies in human serum H76 (human); assay: competition ADA bridging ELISA, 100 mcg/ml competitor
[2] = target: pre-existing anti-scFv903 antibodies in human serum H105 (human); assay: as above
[3] = target: pre-existing anti-scFv903 antibodies in human serum H86 (human); assay: as above
[4] = target: pre-existing anti-scFv903 antibodies in human serum H20 (human); assay: as above
[5] = target: pre-existing anti-scFv903 antibodies in human serum H55 (human); assay: as above
[6] = target: pre-existing anti-scFv903 antibodies in human serum H64 (human); assay: as above
[7] = target: pre-existing anti-scFv903 antibodies in human serum H29 (human); assay: as above
[8] = target: pre-existing anti-scFv903 antibodies in human serum H46 (human); assay: as above
[9] = target: pre-existing anti-scFv903 antibodies in human serum H56 (human); assay: as above
[10] = target: pre-existing anti-scFv903 antibodies in human serum H54 (human); assay: as above
[11] = target: pre-existing anti-scFv903 antibodies in human serum H115 (human); assay: as above
[12] = target: pre-existing anti-scFv903 antibodies in human serum H135 (human); assay: as above
[13] = target: pre-existing anti-scFv903 antibodies in human serum H49 (human); assay: as above
[14] = target: pre-existing anti-scFv903 antibodies in human serum H116 (human); assay: as above
[15] = target: pre-existing anti-scFv903 antibodies in human serum H66 (human); assay: as above
[16] = target: pre-existing anti-scFv903 antibodies in human serum H59 (human); assay: as above
[17] = target: pre-existing anti-scFv903 antibodies in human serum H69 (human); assay: as above
[18] = target: pre-existing anti-scFv903 antibodies in human serum H3 (human); assay: as above
[19] = target: pre-existing anti-scFv903 antibodies in human serum H60 (human); assay: as above
[20] = target: pre-existing anti-scFv903 antibodies in human serum H81 (human); assay: as above
[21] = target: pre-existing anti-scFv903 antibodies in human serum H26 (human); assay: as above
[22] = target: pre-existing anti-scFv903 antibodies in human serum H80 (human); assay: as above
[23] = target: pre-existing anti-scFv903 antibodies in human serum H19 (human); assay: as above
[24] = target: pre-existing anti-scFv903 antibodies in human serum H50 (human); assay: as above
[25] = target: pre-existing anti-scFv903 antibodies in human serum H21 (human); assay: as above
[26] = target: pre-existing anti-scFv903 antibodies in human serum H63 (human); assay: as above
[27] = target: pre-existing anti-scFv903 antibodies in human serum H79 (human); assay: as above
[28] = target: pre-existing anti-scFv903 antibodies in human serum H15 (human); assay: as above
[29] = target: pre-existing anti-scFv903 antibodies in human serum H125 (human); assay: as above
[30] = target: pre-existing anti-scFv903 antibodies in human serum H53 (human); assay: as above
[31] = target: pre-existing anti-scFv903 antibodies in human serum H8 (human); assay: as above
[32] = target: pre-existing anti-scFv903 antibodies in human serum H96 (human); assay: as above
[33] = target: pre-existing anti-scFv903 antibodies in human serum H14 (human); assay: as above
[34] = target: pre-existing anti-scFv903 antibodies in human serum H40 (human); assay: as above
[35] = target: pre-existing anti-scFv903 antibodies in human serum H76 (human); assay: competition ADA bridging ELISA
[36] = target: pre-existing anti-scFv903 antibodies in human serum H135 (human); assay: competition ADA bridging ELISA
[37] = target: pre-existing anti-scFv903 antibodies in human serum H49 (human); assay: competition ADA bridging ELISA
[38] = target: pre-existing anti-scFv903 antibodies in human serum H81 (human); assay: competition ADA bridging ELISA
[39] = target: pre-existing anti-scFv903 antibodies in human serum H50 (human); assay: competition ADA bridging ELISA
[40] = target: pre-existing anti-scFv903 antibodies in human serum H63 (human); assay: competition ADA bridging ELISA
[41] = target: pre-existing anti-scFv903 antibodies in human serum H96 (human); assay: competition ADA bridging ELISA
[42] = target: pre-existing anti-scFv903 antibodies in human serum H40 (human); assay: competition ADA bridging ELISA

- % reduction in OD [1]: -48.6%
- % reduction in OD [2]: -96.9%
- % reduction in OD [3]: -86.7%
- % reduction in OD [4]: -96.1%
- % reduction in OD [5]: -96%
- % reduction in OD [6]: -95.5%
- % reduction in OD [7]: -78.7%
- % reduction in OD [8]: -77.1%
- % reduction in OD [9]: -15.1%
- % reduction in OD [10]: -91.7%
- % reduction in OD [11]: -94.8%
- % reduction in OD [12]: -95.2%
- % reduction in OD [13]: -81.2%
- % reduction in OD [14]: -97.2%
- % reduction in OD [15]: -96.4%
- % reduction in OD [16]: -96.4%
- % reduction in OD [17]: -74.7%
- % reduction in OD [18]: -85%
- % reduction in OD [19]: -94.8%
- % reduction in OD [20]: -94.4%
- % reduction in OD [21]: -96.8%
- % reduction in OD [22]: -85.3%
- % reduction in OD [23]: -84.3%
- % reduction in OD [24]: -88.5%
- % reduction in OD [25]: -85.3%
- % reduction in OD [26]: -19.7%
- % reduction in OD [27]: -96.8%
- % reduction in OD [28]: -90%
- % reduction in OD [29]: -97.4%
- % reduction in OD [30]: -34.6%
- % reduction in OD [31]: -90.7%
- % reduction in OD [32]: -78.5%
- % reduction in OD [33]: -96.5%
- % reduction in OD [34]: -94.6%
- signal change in competition ELISA (% reduction in OD) [35]: -96%
- signal change in competition ELISA (% reduction in OD) [36]: -95%
- signal change in competition ELISA (% reduction in OD) [37]: -81%
- signal change in competition ELISA (% reduction in OD) [38]: -94%
- signal change in competition ELISA (% reduction in OD) [39]: -89%
- signal change in competition ELISA (% reduction in OD) [40]: -20%
- signal change in competition ELISA (% reduction in OD) [41]: -79%
- signal change in competition ELISA (% reduction in OD) [42]: -95%
B1: scFv 791 (scFv)
scFv: MEIVMTQSPSTLSASLGDRVIITCQSSQSVYGNIWMAWYQQKSGKAPKLLIYQASKLASGVPSRFSGSGSGAEFSLTISSLQPDDFATYYCQGNFNTGDRYAFGQGTKLTVLGGGGGSGGGGSGGGGSGGGGSEVQLVESGGGLVQPGGSLRLSCTASGFTISRSYWICWVRQAPGKGLEWVACIYGDNDITPLYANWAKGRFPVSTDTSKNTVYLQMNSLRAEDTAVYYCARLGYADYAYDLWGQGTLVTVSS
